Assay results published in the nanobody polyreactivity screen of Harvey et al. (2022).

Assay: yeast display, Sf9 membrane polyspecificity reagent, FACS + sequencing; frameworks hold sequencing errors
In short: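 Using colony PCR, genes from sorted yeast display clones were amplified, then sequenced on MiSeq at 2 × 250 and filtered by CDR length. The clones had been stained with 10% biotinylated, detergent-solubilized Sf9 membrane reagent for 1 hour at 4 °C and sorted by FACS into low and high (top ~1%) gates on anti-HA and streptavidin fluorescence. Polyreactivity labels come from the gate of origin.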

| Sequence | polyreactivity (PSR sort gate) |
| --- | --- |
| EVQLVESGGGLVQAGGSLRLSCAASGFTFGVYARGWYRQAPGKERELVAAITWGDGSTYYADSVKGRFTISRDNAKNTVYLQMNSLKPEDTAVYYCNAVTRRHKYYYWGQGTQVTVSS | high polyreactivity |
| QVQLVESGGGLVQAGGSLRLSCAASGRIFGTDVMGWYRQAPGKERELVARITGGGSTNYADSVKGRFTISRDNAKNTVYFQMNSLKPEDTAVYYCARDYGPYLSPENPAPMDYWGQGTQVTVSS | low polyreactivity |
| QVQLVESGGGLVQAGGSLRLSCAASGFTFKSYAMGWYRQAPGKERELVAGISRNGGRTYYADSVKGRFTISRDNAKNTVYLQMNSLKPEDTAVYYCAARIYTSRDNYWGQGTQVTVSS | high polyreactivity |
| QVQLVESGGGLVQAGGTLPLTCAASGSTYYVYAMGCDRQAPGKEREFVAAITGSDGSTYYADSVMGRFTISRDNAKNTVYLQMNSLKPEDTAVYYCAADYYLQNYETGYGYWGQGTQVTVSS | low polyreactivity |
| QVQLVESGGGLDQAGGSLRLSCAASGLISYRNAMGWYRQAPGKERELVAAISSDGSTYYADSVKGRFTISRDNAKNSVYLQMNSLKPEDTAVYYCNADVFRKFGSPSAYKSHRYDYWGQGTQVTVSS | low polyreactivity |
| QVQLVESGGGLVQAGGSLRLSCAASGRIFYVYAMGWYRQAPGKERELVAGIRSGGSTNYADSVKGRFTISRDNAKNTVYLLMNSLKPEDTAVYYCAVQSYGALSPQLVYRRYDYWGQGTQVTVSS | high polyreactivity |
| QVQLVESGGGLVQAGGSLRLSCAASGRTFRWYAMGWYRQAPGKERELVAAIRSGGRTYYADSVKGRFTISRDNAKNTVYLQMNSLKPEDTAVYYCAALAVTYRYDYWGQGTQVTVSS | high polyreactivity |
| QVQHVESGGGLVQAGGSLRLSCAASGYTFYIYPMGWYRQAPGKERELVATISSSGGGTYYADSVKGRFTISRDNAKNTVYLQMNSLKPEETAVYYCAADSWRYVAEGLWREYDYWGQRTQVTVSS | low polyreactivity |
| QVQLVESGGGLVQAGGSLRLSCAASGRTFFVNTMGWSRQAPGKERELVAAISDSGGSTYADSVKGRFTISRDNAKNTVNLQKNSLKPEDTAVYYCAARRRYPQRFGFDYWGQGTQVTVSS | low polyreactivity |
| QVQLVESGGGLVQAGGSLRLSCAASGSIFELNAMGWSRQAPGKERELVAAITSSGSSTYYADSVKGRFTISRDNAKNTVYLQMNSLKPEDTAVYYCARDAFEPYDVGEYYYWGQGTQVTVSS | low polyreactivity |
| QVQLVESGGGLVQAGGSLRLSCAASGSTFTVNGMGWYRQAPGKERELVASITWSGGSTYYADSVKGRFTISRDNAKNTVYLQMNSLNPEDTAVYYCAADEKLYITGYDYWVQGTQVTVSS | low polyreactivity |
| QVQLVESGGGLVQAGGSLRLSCAASGRIFVGYAMGLYRQAPGKEREFVATITFSGSSTYYADSVKGRFTISRDNAKNTVYIQMNSLKPEDTAVYYCAVTLEDYTYVYWGQGTQVTVSS | low polyreactivity |
| QVQLVESGGGLVQAGGSLRLSCAASGLTFYYYVMAWYRQAPGKERELVAAISRSGGSTRYADSVKGRFTISRDNANNTVYLQMNSLKPEDTAVYYCNAVRYPRLMYYWGQGTQVTVSS | high polyreactivity |
| QVQLVESGGGLFQAGGSLRLSCAASGSIIRKYAMGWSIQAPGKERELVAAISRRTGNTYYADSVKGRFTISRDNAKNTVYLQMKSLKPEDTAVYYCAADYYSSSSWSEVDSWGQGTQVTVSS | high polyreactivity |
| QVQLQESGGCLVQAGGSLRKSCAASGNIFDADIMGWYRQAPGKERELVASITDGRRTNYADSVKGRYTISRDSENNTVYLQLNSLKAEDTAVYYCAAIAYPVVPTYFDYDSDFFHWGQGTQVTVSS | high polyreactivity |
| QVQLVESGGGLVQAGGSLRLSCAASGSIFFRYTMGWYRQAPGKERELVAAITGDGGSTYADSVKGRFTISRDNAKNTVYLQMNSLNPEDTAVYYCAALSTTGIWGTVSTYYYWGQGTQVTVSS | low polyreactivity |
| QVQLVESGGGLVQAGGSLRLSCAASGSIFWAYTMGWYRQAPGKERELVAAISASGGSTYYADSVKGRFTISRDNAKNTVYLQMNSLKPEDTAVYYCAAVYDLGYYGPIWAIVLDDYWGQGTQVTVSS | low polyreactivity |
| QVQLVESGGGLVQAGGSLRLSCAASGRIFNANAMGWYRHAPGKERELVAAISSSGGSTYYADSVKGRFTISRDNAKNTVYLQMNSLNPEDTAVYYCNADWGWRYSSDFDYWGQGTQVTVSS | low polyreactivity |
| QVQLVESGGGLVQAGGSLRLSCAASGRIFGRYAMGRYRQAPGKERELVAAISSTVGSTYYADSVKGRFTISRDNAKNTVDLQMNSLKPEDTAVYYCATVWYGSYYWATEYWGQGTQVTVSS | high polyreactivity |
| QGQLVESGGGLVQAGGSLRLSCAASGRIFAGNAMGWYRQAPGKDRELVAAISKSGRSTYYADSVKGRFTISRDNAKNTVYLQMNSLKPEDTAVYYCAKLYYPVSDQYDYYYWGQGTQVTVSS | low polyreactivity |
| QVQLVESGGGLVQAGGSLRLSCAASGRTFPGYAMGWYRQAPGKERELVASITSRGGITNYADSVKGRFTISRDIAKNTVYLQMLCLKPEDTSVYYCAAVSFWTMDYWGQGTQVTVSS | low polyreactivity |
| QVQLVESGGGLVQAGGSLRLSCAASGRIFTYNTMGWYRQAPGKERELVAAITSGGRTYYADSVKGRFTISRDNAKNTVYLQMNSLKPEDTAVYYCAAGRSRFVTRYDYWGQGTQVTVSS | high polyreactivity |

| Sequence | polyreactivity (PSR sort gate) |
| --- | --- |
| QVQLVESGGGLVQAGGSLPLSCAASGRIYDSYAKGWYIQAPGKERELVAAISFGGDTYYADSVKGRFTISRDNAKNTVYLQMNSLKPEDTAVYYCAKDNPAALFDSWGQGTQVTVSS | low polyreactivity |
| QVQLVESGGGLVQAGGSLRLSCAASEFIFARNGMGWYRQAPGKERELVAAITNSGSTYADSVKGRFTISRDNAKNTVYLQMNSLKPEDTAVYYCNKDPGNVSSYTGGGYWGQGTQVTVSS | low polyreactivity |
| QVQLVESGGGLGQAGGSLRLSCAASGFTFVYYAMGWYRPAPGKERELVAAISSRGGSTNYADSVKGRFTISRDNAKNTVYLQMNSLKPEDTAVYYCATYFSIQRRGDYWGQGTQVTVSS | high polyreactivity |
| QVQLVESGGGLLQAGGSLRLSCAASGRIFSIYAMGWYRPAPGKEREMVAAIRRGGSTSYADSVKGRFTISRDNAKNTVYLLMNSLKPEDTAVYYCAARLRYLGYDYWGQGTQVTVSS | high polyreactivity |
| QVQLVESGGGLVQAGGSLRLSCAASGGTFGSYAMGWYRQAPGKERELVAAIRSGDRTYYADSVKGRFTISRDNAKNTVYLQMNSLKPEDTAVYYCAKLRYPYLFWDDSEYWGQGTQVTVSS | low polyreactivity |
| QVQLVESGGGLVQAGGSLRLSCAASGSIFYTNVRGWYRQAPGKAREFVAAITGGGGSTYYADSVKGRFTISRDNAKNTVYLQMNSLKPEDTAVYYCATKAKPRSGYNYWGQGTQVTVSS | low polyreactivity |
| QVQLVESGGGLVQAGGSLRLSCADYGIIFSPYAMGWYRQAPGKERELVAAISYSGGSTYYADSVKGRFTISRDNAKNTVKLQMNSLKPEDTAVYYCAVVYSYYLAVLGYWDYDYWGQGTQVTVSS | low polyreactivity |
| QVQLVESGGGLVQAGGSLRLSCAASGSTFRHNAMGWYRQAPGKERELVAAITRSGGRTFYADSVKGRFTISRDNAKNTVYLQMNSLKPEDTAVYYCWGLGTQVTVSS | low polyreactivity |
| QDQLVESGGGLVQAGGSLSLSCAASGSIFFRNVMGWYRQAPGKERELVAAISGSGGRTYNADSVKGRFTISRDNAKNTVYLQMNSLKPEDTAVYYCYADYWSRRDDHDYWGQGTQVSVSS | high polyreactivity |
| QVQLLESGGGLVQAGGSLRLSCDASGITFGPNAMGWYRQAPGKERELVATISSSGGSTYYSDSVKGRFTISRDNAKNTVLLQMKSLKPEDTAVYYCNSGFDPYLGAYDYWGQGTQVTVSS | low polyreactivity |
| QVQLVESGGGLVQAGGSLRLSCAASGYTFTHYAMGWYRQAPGKERELVASISQSGGSTYYPDSVKGSFTISRDNAQYTVYGQMNSLKPEDTAVYYCAVDYYYDQSLYEYCGQGTQVTVSS | high polyreactivity |
| QVQLVVSGGGLVQAGGSLRLSCAASGSLFTPYAMGWYRQAPGKERELVATISWSGGRTYYADSVKGRFTISRDNAKNPVYLQMNSLKPEDTAVYYCAARGYSSEYDYWGQGTQVTVSS | high polyreactivity |
| QVQLVESGGGLVQAGGSLRLSCAASGSIFYVYAMGWYRQAPGKERELVAAITNYADSVKGRFTISRDNAKNTVYLQMNSLKPEDTAVYYCAADWWRVEMDYWGQGTQVTVSS | low polyreactivity |
| QVQLVESGGGLVQAGGSLRLSCAASGFILGLNAMGWYRRAPGKEREFVADISWSGDSTYYADSVKGRFTISRDNAKNTVYLQMNSLKPEDTAVYFCAADRYYNWGYYYWGQGTQVTVSS | low polyreactivity |
| QVQLEESGGGLVQAGGSLRISCSASGFNFRYYTMGWYRQAPGKERELVAAITSRGGSTYYADSLKGRFTISRDIAKNTVYLQMNSLKPEDTAVYYCATTSWGYEYWGQGTEVTVSS | high polyreactivity |
| QVQLQERGGGLVQAGGSLLSCAASGTISYYREMGWYRQAPGKERELVAGIGVGTITYYADSVKGRFTISRDNAKNTVYLQMNRLKPEDTAVYFCAAHIDGNDSHAYWGQGTQVTVSS | low polyreactivity |
| QVQLVESGGGSVQAGGSLRLSCAASGSTFGGNVMGWYRQAPGKERELVAAISGSGGSTYYADSVKGRFTISRDTAKNTVYFQMNSLKPVDTSVYYCNVESSQSSSGFDYWGQGTQVTVSS | low polyreactivity |
| QVQLVESGGGLVQAGGSLRLSCAASGRIFIYNAMGWYRQAPGKEREFVAAISSSGGSTYYADSVKGRFTISRDNAKNTVYLQMNSLKPEDTAVYYCAAGGWPYSGGWFFQPNYDYWGQGTQVTVSS | low polyreactivity |
| QFQLVESGGGLVQAGGRLRLSCAASGRIFRYSAMGWYRQAPGKERQLVASISSGGSTNYADSVKGRFTISRDNAKNTVYLQMNSLKQEDTAVYYCAARYWVSGFRAGYYWGQGTQVTVSS | high polyreactivity |
| QVQLVESGGGLVQAGGSLRLSCAASGSIFESYVMGWSRPAPGTEREMVAAISSGGSTYYADSVKGRFTISRDNAKNTVYLQMNSLKPEDTAVYYCAANYDGGYLDYEAGYRLEYDYWGQGTQVTVSS | low polyreactivity |
| QVQLVESGGGLVQAGGSLRLSCAASGIIFPYYAMGWYRQAPGKERELVAGISWSGGSTYYADSVKGRFTISRDNAKNTVYLQMNSLKPEDTAVYYCAADYPATPDDDYWGQGTQVTVSS | high polyreactivity |
